# Laboratory results published in the nanobody polyreactivity screen of Harvey et al. (2022).
# Experiment: yeast display, Sf9 membrane polyspecificity reagent, FACS + sequencing; frameworks hold sequencing errors
# In short: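 A nanobody's polyreactivity label depends on the gate it was sorted from. Yeast display cells were stained with 10% biotinylated, detergent-solubilized Sf9 membrane reagent for 1 hour at 4 °C, enriched on streptavidin microbeads and sorted by FACS. The low and high (top ~1%) gates were set on anti-HA fluorescence for expression and streptavidin fluorescence for reagent binding.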
row,Sequence,polyreactivity (PSR sort gate)
1,QVQLVESGGGLVQAGGSLRLSCAASGRTFVSYAMGWYRQAPGKERELVATITGSTGGTYYADSVKGRFTISRDNAKNTVYLQMNSLKPEDTAVYYCAADRTTYTYYLPYDYWGQGTQVTVSS,low polyreactivity
2,QVQLVESGGGLVQAGGSLRLSCAASGRTFQFYTMGWYRQAPGKERELVAVITVSSAATFYADTVKGRFTISRDNAKNTVSLQMNSLKPEDTAVYYCAAGLVLIVGMDSWGQGTQVTVSS,low polyreactivity
3,QVQLVESGGGLVQAGGSLRLSCAASGSIFVRNAMGWYRQAPGKERELVAAITARGGSTYYADSVKGRFTISRDNAKNTVYLLMHSLKPEDTAVYYCARSYYYRGWAQWRYDYWGQGTQVTVSS,high polyreactivity
4,QVQLVESGGGLVQAGGSLRLSCAASGSTFQYNVMGWYRQAPGKERELVATISYSSGRTYYADSVKGRFTISRDNAKNTVYLQMNSLKPEDTAVYYCAAAVRLYFWTSAYKYGYWGQGTQVTVSS,high polyreactivity
5,QVQLVESGGGLVQGGGSLRLSCAASGSTFAVYDMGWYRPAPGKERELVAAITVSGSSTHYADSVKGRFTISRDNAKNTVYLQMNSLKPEDTAVYYWGQGTQVTVSS,low polyreactivity
6,QVQLVESGGGLVQAGGSLRLSCAASGRIFSFNAMGWYRQAPGKERELVATIRTDGTTNYADSVKGRFTISRDNAKNTVYLQMNSLKPEDSAVYYCATDSGWSTYDYWGQGTQVTVSS,high polyreactivity
7,QVQLVESGGGLVQAGGSLRLSCAASGRIYLNAMGWYRQAPGKERELVAAISSRGASTYYADSVKGRFTISRDNAKNTVYLQMKSLKPEDTAVFYCAARLRNIYYFRMGYWGQGTQVTVSS,high polyreactivity
8,QVQLVESGGGLVQAGGSLRLSCAASGFTIRWYTMGWYRQAPWKERELVATINWSGGSTYYADSVKGRFTISRDNAKNTVYLQMNSLIPEDTAVYYCARRQSGTIKTRMDYWGQGTQVTVSS,high polyreactivity
9,QVQLVDSGGGLVQAGGSLRLSCPASGSTFLVYAMGWYRQAPGKERELVAVITYSTVRTYYADSVKGRFTISRDNAKNTVYLQMNSLKPEDTAVYHCNADKEFAVLGQGMDFWGQGTQVTVSS,low polyreactivity
10,QVQLVESGGGLLQAGGSLRLSCAASGFIFADNAMGRYIQAPGKERELVAGITSGGITNYADSVKGRFTISRDNAKNTVYLQMNSLKPEDSAVYYCAVYYRRWLSRYDYWGQGTQVTVSA,low polyreactivity
11,QVQLVESGGGLVQAGRSLRLTCAASGSIFYYYAMGWYRQAPGNERELVAAISSGGRTYYADSVKGRFTISRENANNNVYLQMKSLKTEDTAVYYCAASGGSYSVGRYYYWGQGSQVTVSS,high polyreactivity
12,QVQLVESGGGLVQAGGSLRLSCAASGFIFDGYTMGRYRQAPGKERELVAAISRSGGRTYYADSVKGRFRISRDNAKNTVYLQMNSLKPEDTAVYYCAVRYRLYSQTVASDYGYWGQGTQVTVSS,high polyreactivity
13,QVQLVESGGGLVQAGGSLRLSCAASGITFSSYVMGWYRQAPGKERELDAAISRSGGITYYADSVKGRFTISRDNAKNTVYLQMNSLKPEDTAVYYCAVRYYIYRPGGYDYWGQGTQVTVSS,high polyreactivity
14,QVQLVESGGGLVQAGGSLRLSCAASGSTSRSYTMGWYRQAPGKEREFVASIRWSGGRTYNADSVKGRFTISRDNAKNTVYLQMNSLKPEDTAVYYCNADYYRLRFRLGWYDYWGQGTQVTVSS,high polyreactivity
15,QVQLVESGGGVVQAGGSLRLSCAASGITLAWYAMGWSRQAPGKERELVAAINSGGSTYYADSVKGRFTISRDTAKNTVYLQMNSLKPEDTAVYYCNTDDDSSSTGYYSWGQGTQVTVSS,low polyreactivity
16,QVQLVESGGGLVQASGSLRLSCAASGFTFSQYDMGWNRQDHGKERELVAAISWNGGSTYYAESVKGRFTISRDNAKNTVYLQMNSLKPDDTAVYYCNRRWPFVRFYYWGQGTQVTVSS,high polyreactivity
17,QVQLVESGGGLVQAGGSLRLSCAASGITFRGYARGWYRQAPGKERELVASITNTDSTYYADSVKGRFTISRDNAKNTVYLQMNSLKPEDTAVYYCAARRGRKYGYWGQGTQVTVSS,high polyreactivity
18,QVQLVESGGGLVQAGGSLRLSCAASGFTFYINALGWYRLAHGKERELVAAITWRSVRTYYADSVKGRFTISRDNAKNTVYLQMNSRKPEDTEVYYCAAASAYRHGEYDYWGQGTQLTVSS,low polyreactivity
19,QVQLVESGGGLVQAGGSLRLSCAASGSTFDYNAMGWYRQAPGKERELVATITSTGRTNYADSVKGRFTISRDNAKNTVYLQMNSLKPEDTAVYYCAKRTFFGKARGGPTYRLYYWGQGTQVTVSS,high polyreactivity
20,QVQLVESGGGLVQAGGSLRLSCAASGFIITGNPMGWYRQAPGKERELVAAITSGGNTYYADSVKGRFTISRDNANNTVYLQMNSLKPEDTAVYYCAKYVPHWRILMEYWGQGTQVTVSS,low polyreactivity
21,QVQLVETGGGIVQAGGSLRLSCAASGSTFDGYVMGWYRQEPGKERELVAAISGSGGSTYYADSVKGRFTISRDNAKNTVYFELYSLKPEDTSVYYCAADSWWYDDYSEGDYWGQGTQVTVSS,low polyreactivity
22,QVQLVESGGGLVQAGGSLRLSCAASGSTFYIYAMGWYRQAPGQERELVATISWSGGSTYYADSVKGRFTISRDNAKNTVYLQMNSLKPEDTAVYYCAVRPGFGRSLWYGYWGQGTQVTVSS,high polyreactivity

row,Sequence,polyreactivity (PSR sort gate)
1,QVQLVESGGGLVQAGGSLRISCAASGITLAKNAMGWYRQAPGKETELVAAISRRGGNTYYADSVKGRFTISRDNAKNTVYLQMNSLKPEDTAVYYCAVDYRSTGLGYWGQGTQVTVSS,high polyreactivity
2,QVQLVESGGGLVQARGSLRLSCAASGSIFAYNAMGWYRQAPGKERELVARISNRSGRTYYADSVKGRFTISRDNAKNTVYLLMNSLKPEDTAVYYCGVVAGLGTYRRYGYCGQGTQVTVSS,high polyreactivity
3,QVQLVESGGGLVQAGGSLRLSCAASGRTFKYYTMGWYRQAPGKERELVAAITGSGGSTYYADSVKGRFTISRDNAKNTVYLQMNSLKPEDTAVYYCAAYRTFSREYYYWGQGTQVTVSS,high polyreactivity
4,QVQLVESGGGLVQAGGSLRLSCAASGFTFDWNGMGWYRQAPGKEREFVAGITWSGTSTYADSVKGRFTISRDNAKNTVYLQMNSLKPEDTAVYYCAAVSSKGNRHEYDYWGQGTQVTVSS,low polyreactivity
5,QVQLVESGGGLVQAGGSLRLSCAASGRIFSSYDMGWYRQAPGKERELDAAISSRTGITNYADSVKGRFTISRDNAKNTVYLQMNSLKPEDTAVYYCAKVGWYGYTRSYKYGYWGQGTQVTVSS,high polyreactivity
6,QDQLVESGGGLVQAGGSLRLSCAASGRTFIRNSMGWNRQAPGKERELVAAISGTGGSTYYADSVKGRFTISRDYAKNTVYLQMNSLKPEDTAVYYCAADRPAPGYDFWGQVTQVTVSS,low polyreactivity
7,QVQLVESGAGLVQAGASLRLSCAASGRIFPWNAMGWSRQEPGKERELVAAISFSAGRTYYADSVKGRFTISRDNAKNTVYLQMNSLKPEDTAVYYCNARIGSRWVWTGIICYEYWGKGTQVTVSS,low polyreactivity
8,QVQLVESGGGLVQAGGSLRLSCAASGFTFQEYAMGWYRQAPGKERELVAVISSSGVRTYYADSVKGRFTISRDNAKNTVYLQMNSLKPEDTAVYYCAARRYHYIPSTKGNYWGQGTQVTVSS,high polyreactivity
9,QVQLVESGGGLVQAGGSLRLSCAASGSIISSYTMGWYRQAPGKERELVAVITSGDSTNYADSVKGRFTISRDNAKNTVYLEMNSLKPEDTAVYYCNADYVKVFKLQFDYWGQGTQVTVSS,low polyreactivity
10,QVQLVESGGGLDQARGSLRLSCAASGYTFYRNAMGWYRQAPGKVRELVAAIRDDGSTYYADSVKGRFTISRDNAKNTVYLHMNSLKPADTAVYYCNRDYPYIWHKGARYWHDNDYWGQGTQVTVSS,low polyreactivity
11,QVQLVESVGGLVQAGGSLRLSCAASGRIFHWYAMGWYRQAPGKERELVAAIRWTGGSTYYADSVKGRFTISRDNAKNTVYLQMNSLKPEDTAVYYCAAKGYTGIFYEMDYWGQGTQVTVSS,low polyreactivity
12,QVQLVESGGGLVQAGGSLRLSCAATGRTFLYNAMGWYRQAPGKERELVAAISFDDGSTYYADSVKGRFTISRDNAKNTVYLQMNSLKPEDPAVYYCAAEYLYVGDSQAYNQYEYWGQGTQVTVSS,low polyreactivity
13,QVQLVESGGGLVQAGGSLRLSCAASGRTFAVYAMGWYRQAPGKERELVAAITRSGGSTYYADSVKGRFTISRDNAKNTVYLQMNSLKPEDTAVYYCAAGGQARHDYWGQGTQVTVSS,low polyreactivity
14,QVQLVESGGGLVQAGGSLRLSCAASGIIFYTNAMGWYRQAPGKEREFVAAINTSGGITYYADSVKGRFTISRDNATNTVYLQMNSLKPEDTAVYYCAKDRRYRPPYGYEIEYAYWGQGTQVTVAS,low polyreactivity
15,QVQLVESGGGLVQEGGSLRLSCAASGSTFTPYAMGWYRQAPGKERELVAGITGNGGSTRYADSVKGRFTISRDNEKNTVYLQMKSLKTEDSAVYYCAARWTRQRYRTSYYAWGQGTQVTVSS,high polyreactivity
16,QVQLVESGGGLVQAGGSLRLSCASSGFTFYKYAMGWYRQAPGKERELVAAITRGDSTYYADSVKGRFTISRDNAKNTVYLQMNSLKPEDTAVYYCNAVFSYRLFNYWGQGTQVTVSS,high polyreactivity
17,QVQLVESGGGLVQAGGSLRLSCAASGYIFPGNAMGWYRQAPGKERELVATISGSAGSTSYADSVKGRFTISRDNAKNTVYLQMNSLKPEDTAVYYCNKAYSYSWGDLDYWGQGTQVTVSS,high polyreactivity
18,QVQLVESGGGLVQAGGSLRLSCAASGSIFTTYAMGWYRQAPGKERELVAAISRAGDTTYADSVKGRFTISRDNAKNTVYLQMNSLKPEDTAVYYCADYDYWGQGTQVTVSS,low polyreactivity
19,QVQLVESGGGLVQAGGSLRLSSAASGITFIRYAMGWYSQAPGKERELVAAISSGGSTNYADSVKGRFTISRDNAKNTVYLQMNSLKPEDTAVYYCAARYYWSFAYDYWGQGTQVTVSS,low polyreactivity
20,QVQLVESGGGLVQAGGSLRLSCAASGYIFYEYAMGWYRQAPGKERELVAAISRRGGRTYYADSVKGRFTISRDNAKNTVYLQMKSLKPEDTAVYYCATRVIYGHSVGYWGQCTQVTVSS,high polyreactivity
21,QVQLVESGGGLVQAGGSLRLSCAASGSIFVWNAMGWYRQAPGKERELVAAISYTDGSTYYADSVKGRFTISRDNAKNTVYLQMNSLKPEDTAVYYCAAAITPSYTGSEYDYWGQGTQVTVSS,low polyreactivity
